The results in this text go back to PMC9482650, “Quantitative fragmentomics allow affinity mapping of interactomes” (Nature Communications, 2022).

Targets include DLG1_2, Q12959; DLG1_3, Q12959; DLG2_2, Q15700; DLG2_3, Q15700; DLG4_3, P78352; FRMPD2_2, Q68DX3; GIPC2, Q8TF65; GOPC, Q9HD26; GRID2IP_1, A4D2P6; GRIP2_3, Q9C0E4; GRIP2_7, Q9C0E4; HTRA1, Q92743; Inadl_10, Q8NI35.
Common to all, as to assay: holdup assay
Holding throughout (design): key: below the threshold = too weak to quantify, mostly under pKd 3.1 to 4

The next experiment concerns the target T1, ARHGAP21, Q5T5U3.
T1 sequence (Q5T5U3 45-169, limits assumed, looked up): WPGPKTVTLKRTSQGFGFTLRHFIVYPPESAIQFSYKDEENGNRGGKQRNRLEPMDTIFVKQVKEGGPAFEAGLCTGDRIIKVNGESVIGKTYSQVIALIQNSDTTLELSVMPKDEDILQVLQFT

For the next experiment, the target named is T2, LIN7A, O14910.
T2 sequence (O14910 103-200, limits assumed, looked up): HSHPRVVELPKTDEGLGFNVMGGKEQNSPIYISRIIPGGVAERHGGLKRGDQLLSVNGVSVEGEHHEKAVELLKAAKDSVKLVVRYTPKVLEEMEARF

For another experiment, the target named is T3, LRRC7, Q96NW7.
T3 sequence (Q96NW7 1440-1537, limits assumed, looked up): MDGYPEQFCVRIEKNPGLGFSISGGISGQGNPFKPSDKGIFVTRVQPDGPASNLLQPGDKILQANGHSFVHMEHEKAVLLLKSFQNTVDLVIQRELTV

In the next experiment the target is T4, MPDZ_5, O75970.
T4 sequence (O75970 695-796, limits assumed, looked up): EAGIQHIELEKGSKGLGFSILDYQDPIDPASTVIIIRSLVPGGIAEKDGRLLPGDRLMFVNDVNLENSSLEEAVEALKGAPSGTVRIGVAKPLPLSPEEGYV

Another experiment addresses T5, PARD3B_1, Q8TEW8.
T5 sequence (Q8TEW8 196-299, limits assumed, looked up): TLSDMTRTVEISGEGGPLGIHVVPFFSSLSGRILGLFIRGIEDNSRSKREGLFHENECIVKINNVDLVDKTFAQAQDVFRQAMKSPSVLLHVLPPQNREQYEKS

Another experiment deals with T6, PCLO, Q9Y6V0.
T6 sequence (Q9Y6V0 4491-4600, limits assumed, looked up): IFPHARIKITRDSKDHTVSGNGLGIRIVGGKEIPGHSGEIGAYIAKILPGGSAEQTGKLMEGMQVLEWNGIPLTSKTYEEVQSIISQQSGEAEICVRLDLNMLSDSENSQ

Another experiment concerns the target T7, PTPN13_1, Q12923.
T7 sequence (Q12923 1088-1188, limits assumed, looked up): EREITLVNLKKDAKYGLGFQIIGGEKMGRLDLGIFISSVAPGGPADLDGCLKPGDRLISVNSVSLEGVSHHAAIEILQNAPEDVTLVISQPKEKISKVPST

The next experiment deals with T8, RAPGEF6, Q8TEU7.
T8 sequence (Q8TEU7 525-625, limits assumed, looked up): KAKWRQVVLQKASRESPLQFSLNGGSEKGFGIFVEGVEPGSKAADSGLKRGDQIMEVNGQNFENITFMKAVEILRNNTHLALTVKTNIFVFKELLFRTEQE

A further experiment has as its target T9, SIPA1L2, Q9P2F8.
T9 sequence (Q9P2F8 945-1036, limits assumed, looked up): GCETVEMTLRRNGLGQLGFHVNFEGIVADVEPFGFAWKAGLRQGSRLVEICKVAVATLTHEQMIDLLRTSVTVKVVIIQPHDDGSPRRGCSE

The next experiment addresses T10, SNTB1, Q13884.
T10 sequence (Q13884 107-205, limits assumed, looked up): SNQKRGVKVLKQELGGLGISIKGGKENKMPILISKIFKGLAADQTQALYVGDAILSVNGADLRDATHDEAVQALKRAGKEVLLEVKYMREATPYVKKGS

The next experiment concerns the target T11, SYNJ2BP, P57105.
T11 sequence (P57105 8-110, limits assumed, looked up): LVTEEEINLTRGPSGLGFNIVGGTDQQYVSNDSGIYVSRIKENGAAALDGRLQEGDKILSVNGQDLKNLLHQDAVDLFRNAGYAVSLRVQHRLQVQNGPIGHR

The target in another experiment is T12, PDZD7_3, Q9H5P4.
T12 sequence (Q9H5P4 857-944, limits assumed, looked up): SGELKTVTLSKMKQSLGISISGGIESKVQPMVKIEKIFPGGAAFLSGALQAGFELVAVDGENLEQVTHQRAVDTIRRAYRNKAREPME

Where [1] appears, read: plain residues with an end cap or a label only (N-terminal biotin on a linker: ahx).
The mark [2] stands for this setting: plain residues with an end cap or a label only (N-terminal biotin on a linker: ttds).

Sequence of FRMPD2_2, Q68DX3 (Q68DX3 944-1038): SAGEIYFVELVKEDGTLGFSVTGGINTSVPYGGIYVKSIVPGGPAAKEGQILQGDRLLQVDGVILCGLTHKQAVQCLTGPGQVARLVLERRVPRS
Sequence of HTRA1, Q92743 (Q92743 360-477): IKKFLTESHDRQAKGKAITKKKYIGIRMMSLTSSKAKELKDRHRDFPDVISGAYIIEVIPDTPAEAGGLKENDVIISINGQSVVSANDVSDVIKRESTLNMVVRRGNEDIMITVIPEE
Sequence of GRIP2_7, Q9C0E4 (Q9C0E4 934-1023): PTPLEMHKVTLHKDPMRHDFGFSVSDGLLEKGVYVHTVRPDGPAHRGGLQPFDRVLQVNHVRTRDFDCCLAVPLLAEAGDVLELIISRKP
Sequence of GIPC2, Q8TF65 (Q8TF65 112-203): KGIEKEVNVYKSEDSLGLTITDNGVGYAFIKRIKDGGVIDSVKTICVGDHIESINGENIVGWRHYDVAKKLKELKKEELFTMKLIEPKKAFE
Sequence of Inadl_10, Q8NI35 (Q8NI35 1673-1763): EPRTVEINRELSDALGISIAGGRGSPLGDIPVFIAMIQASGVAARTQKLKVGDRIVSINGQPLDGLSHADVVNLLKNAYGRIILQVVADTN
Sequence of GRIP2_3, Q9C0E4 (Q9C0E4 238-339): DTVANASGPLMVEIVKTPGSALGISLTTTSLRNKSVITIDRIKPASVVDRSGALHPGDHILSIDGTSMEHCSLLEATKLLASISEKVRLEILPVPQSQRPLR
Sequence of GRID2IP_1, A4D2P6 (A4D2P6 1-87): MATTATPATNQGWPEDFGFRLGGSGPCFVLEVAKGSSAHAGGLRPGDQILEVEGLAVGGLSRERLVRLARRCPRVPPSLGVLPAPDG
Sequence of DLG1_2, Q12959 (Q12959 314-412): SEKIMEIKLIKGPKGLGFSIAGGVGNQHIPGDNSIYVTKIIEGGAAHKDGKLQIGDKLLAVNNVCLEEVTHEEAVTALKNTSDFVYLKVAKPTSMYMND
Sequence of DLG1_3, Q12959 (Q12959 457-571): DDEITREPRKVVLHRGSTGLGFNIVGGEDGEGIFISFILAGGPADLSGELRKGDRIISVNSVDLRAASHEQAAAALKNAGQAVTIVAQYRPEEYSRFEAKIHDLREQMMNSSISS
Sequence of DLG4_3, P78352 (P78352 306-403): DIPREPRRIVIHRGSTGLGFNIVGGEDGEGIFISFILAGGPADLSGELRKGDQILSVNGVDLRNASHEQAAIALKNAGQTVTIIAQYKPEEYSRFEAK

B1: PDLIM4, P50479;P50479-2 (peptide)
chain: PSASCAVTAA
Turning to B1, the pKd entry with ARHGAP21, Q5T5U3 (setting [1]) is recorded as “below the threshold”; with DLG1_2, Q12959 (setting [1]), “below the threshold”; with DLG1_3, Q12959 (setting [1]) it was “below the threshold”; in the experiment with DLG2_2, Q15700 (setting [1]) it was “below the threshold”; with DLG2_3, Q15700 (setting [1]) it was “below the threshold”; with DLG4_3, P78352 (setting [1]), “below the threshold”. In addition, the pKd entry in the experiment with FRMPD2_2, Q68DX3 (setting [1]) is listed as “below the threshold”; with GIPC2, Q8TF65 (setting [1]) it was “below the threshold”; with GOPC, Q9HD26 (setting [1]), “below the threshold”; with GRID2IP_1, A4D2P6 (setting [1]), “below the threshold”; with GRIP2_3, Q9C0E4 (setting [1]) it was “below the threshold”; with GRIP2_7, Q9C0E4 (setting [1]), “below the threshold”. Also, the pKd result with HTRA1, Q92743 (setting [1]) is “below the threshold”; with Inadl_10, Q8NI35 (setting [1]) it was “below the threshold”; with LIN7A, O14910 (setting [1]) it was “below the threshold”; with LRRC7, Q96NW7 (setting [1]) it was “below the threshold”; in the experiment with MPDZ_5, O75970 (setting [1]), “below the threshold”; in the experiment with PARD3B_1, Q8TEW8 (setting [1]), “below the threshold”. The pKd result is given as “below the threshold” with PCLO, Q9Y6V0 (setting [1]); “below the threshold” with PTPN13_1, Q12923 (setting [1]); “below the threshold” in the experiment with RAPGEF6, Q8TEU7 (setting [1]); “below the threshold” with SIPA1L2, Q9P2F8 (setting [1]); “below the threshold” with SNTB1, Q13884 (setting [1]); “below the threshold” in the experiment with SYNJ2BP, P57105 (setting [1]).

B2: PLCB4, Q15147 (peptide)
chain: EMDRRPATVV
As to B2, the pKd in the experiment with ARHGAP21, Q5T5U3 (setting [2]) came out at 3.64; in the experiment with DLG2_2, Q15700 (setting [2]), 4.23; with DLG2_3, Q15700 (setting [2]), 3.86; with DLG4_3, P78352 (setting [2]) it was 3.95; in the experiment with FRMPD2_2, Q68DX3 (setting [2]), 3.78; in the experiment with GIPC2, Q8TF65 (setting [2]), 3.48. Further, the pKd in the experiment with GOPC, Q9HD26 (setting [2]) is 4.04; with GRID2IP_1, A4D2P6 (setting [2]) it was “below the threshold”; in the experiment with GRIP2_3, Q9C0E4 (setting [2]), “below the threshold”; with GRIP2_7, Q9C0E4 (setting [2]), 3.63; in the experiment with HTRA1, Q92743 (setting [2]) it was 4.23; with LIN7A, O14910 (setting [2]), “below the threshold”. The pKd result with LRRC7, Q96NW7 (setting [2]) was “below the threshold”; with MPDZ_5, O75970 (setting [2]) it was 3.66; in the experiment with PARD3B_1, Q8TEW8 (setting [2]), 3.68; with PCLO, Q9Y6V0 (setting [2]), 3.71; with PDZD7_3, Q9H5P4 (setting [2]), 5.03; with PTPN13_1, Q12923 (setting [2]), “below the threshold”. The pKd result in the experiment with RAPGEF6, Q8TEU7 (setting [2]) is “below the threshold”; with SIPA1L2, Q9P2F8 (setting [2]) it was “below the threshold”; with SNTB1, Q13884 (setting [2]), 4.71; in the experiment with SYNJ2BP, P57105 (setting [2]) it was 3.7.

B3: HPV18-E6, P06463 (peptide)
chain: RLQRRRETQV
For the molecule B3, the pKd result was “below the threshold” in the experiment with ARHGAP21, Q5T5U3 (setting [2]); 5.78 with DLG1_2, Q12959 (setting [2]); 5.02 with DLG1_3, Q12959 (setting [2]); 5.19 with DLG2_2, Q15700 (setting [2]); 5.06 with DLG2_3, Q15700 (setting [2]); 5.74 in the experiment with DLG4_3, P78352 (setting [2]). Also, the pKd result in the experiment with FRMPD2_2, Q68DX3 (setting [2]) is on record as “below the threshold”; in the experiment with GIPC2, Q8TF65 (setting [2]), “below the threshold”; with GRID2IP_1, A4D2P6 (setting [2]), “below the threshold”; with GRIP2_3, Q9C0E4 (setting [2]) it was “below the threshold”; with GRIP2_7, Q9C0E4 (setting [2]), “below the threshold”; with HTRA1, Q92743 (setting [2]), “below the threshold”. Moreover, the pKd entry was “below the threshold” with Inadl_10, Q8NI35 (setting [2]); 3.4 with LIN7A, O14910 (setting [2]); 3.14 with LRRC7, Q96NW7 (setting [2]); “below the threshold” with MPDZ_5, O75970 (setting [2]); “below the threshold” with PARD3B_1, Q8TEW8 (setting [2]); “below the threshold” with PCLO, Q9Y6V0 (setting [2]). In addition, the pKd is 3.98 in the experiment with PDZD7_3, Q9H5P4 (setting [2]); “below the threshold” in the experiment with PTPN13_1, Q12923 (setting [2]); “below the threshold” with RAPGEF6, Q8TEU7 (setting [2]); “below the threshold” in the experiment with SIPA1L2, Q9P2F8 (setting [2]); 5.23 in the experiment with SNTB1, Q13884 (setting [2]); 5.35 with SYNJ2BP, P57105 (setting [2]).

B4: ARHGEF7, Q14155;Q14155-1 (peptide)
chain: NDPAWDETNL
Take B4: the pKd result with DLG1_2, Q12959 (setting [2]) is “below the threshold”; in the experiment with DLG1_3, Q12959 (setting [2]), “below the threshold”; in the experiment with DLG2_2, Q15700 (setting [2]), “below the threshold”; in the experiment with DLG2_3, Q15700 (setting [2]) it was “below the threshold”; in the experiment with DLG4_3, P78352 (setting [2]) it was “below the threshold”; with FRMPD2_2, Q68DX3 (setting [2]) it was “below the threshold”. Besides, the pKd in the experiment with GOPC, Q9HD26 (setting [2]) is 4.13; with GRID2IP_1, A4D2P6 (setting [2]) it was “below the threshold”; with GRIP2_3, Q9C0E4 (setting [2]) it was “below the threshold”; with GRIP2_7, Q9C0E4 (setting [2]) it was “below the threshold”; with HTRA1, Q92743 (setting [2]), 3.92; with Inadl_10, Q8NI35 (setting [2]) it was “below the threshold”. Besides, the pKd entry is “below the threshold” with LIN7A, O14910 (setting [2]); “below the threshold” with MPDZ_5, O75970 (setting [2]); “below the threshold” in the experiment with PCLO, Q9Y6V0 (setting [2]); 4.24 with PDZD7_3, Q9H5P4 (setting [2]); “below the threshold” in the experiment with PTPN13_1, Q12923 (setting [2]); “below the threshold” with RAPGEF6, Q8TEU7 (setting [2]). The pKd entry is “below the threshold” in the experiment with SIPA1L2, Q9P2F8 (setting [2]) and 4.26 with SNTB1, Q13884 (setting [2]).

B5: GRIN1, Q05586;Q05586-2 (peptide)
chain: LSDPSVSTVV
B5: the pKd result with ARHGAP21, Q5T5U3 (setting [1]) is “below the threshold”; with DLG1_2, Q12959 (setting [1]), 4.51; with DLG1_3, Q12959 (setting [1]) it was “below the threshold”; with DLG2_3, Q15700 (setting [1]), 4.26; with DLG4_3, P78352 (setting [1]), “below the threshold”; with FRMPD2_2, Q68DX3 (setting [1]) it was “below the threshold”. For the same molecule, the pKd entry with GIPC2, Q8TF65 (setting [1]) was “below the threshold”; with GOPC, Q9HD26 (setting [1]), “below the threshold”; with GRID2IP_1, A4D2P6 (setting [1]), “below the threshold”; with GRIP2_3, Q9C0E4 (setting [1]) it was “below the threshold”; with GRIP2_7, Q9C0E4 (setting [1]), “below the threshold”; with HTRA1, Q92743 (setting [1]) it was 4.32. Moreover, the pKd result with Inadl_10, Q8NI35 (setting [1]) is “below the threshold”; with LIN7A, O14910 (setting [1]), “below the threshold”; with LRRC7, Q96NW7 (setting [1]), “below the threshold”; with MPDZ_5, O75970 (setting [1]), “below the threshold”; in the experiment with PARD3B_1, Q8TEW8 (setting [1]), “below the threshold”; in the experiment with PCLO, Q9Y6V0 (setting [1]), “below the threshold”. The pKd with PDZD7_3, Q9H5P4 (setting [1]) is 4.54; with PTPN13_1, Q12923 (setting [1]), “below the threshold”; with RAPGEF6, Q8TEU7 (setting [1]) it was “below the threshold”; with SIPA1L2, Q9P2F8 (setting [1]), “below the threshold”.

Usually pKd stands for −log10 of the Kd, conventionally taken in molar units.
